This note sets out measurements from patent publication US20240240160A1, “NOVEL OLIVETOL SYNTHASES FOR C[…]” (priority 2021, published 2024).

B1: PKA56805.1: Type-III PKS enzyme from Apostasia shenzhenica (protein, listed as Apostasia shenzhenica)
chain: MPGVEAVAQNISPARSDGLAAILAIGRANPPNIVEQSSFADLYFRLHNSEHLVDLKKKLQRICDRTAIRKRHFVWDEELLMANPCLRTVTEPSLNARQKVAITEIPKLGAAAATNAIAEWGRPKSDITHLIFCTTSGMDLPGADYQLIRLLGLNDNIQRIMLYQQGCFAGGTVLRLAKVLAESRRSARVLIVCAETTTVLVRSPSVENQDDLVTQALFADGASALIVGADPNAGEKPVFSVFSTSQVLLPDSDGAIGGHVGENGLTATLHRDVPAVISKNVGKCLEEAFTPLGISDWNSIFWAAHPGGRAILDQVEERVGLKPEKMWASRHVLAEYGNMSSVSVHFALDEIRRRSAKEGKATTGDGFEWGVLFGFGPGLTVETVVLRSAPISA
modifications: (1)..(393) PKA56805.1
B2: A0A0D9WZ61: Type-III PKS enzyme from Leersia perrieri (protein, listed as Leersia perrieri)
chain: MAPVPANGAATATATTQEIRRAQRADGPATVLAIGTANPETYVSQDEYADYYFRITKSEHLPELKDKLRRICNKSGIDKRFMYVNEDVMEAHPEFADRNQSSLNARVEIASKAVPELAAAASAKAIAEWGRPATDITHLIFSTYSGVKAPSGDRLLASLLGLRPNVSRTTLSLHGCYGGGRALQLAKELAENNRGARVLVACAEMTLIAFYGPEVGCNDTIVGQALFGDGSGAVIVGADPVDAAGERPLFEMAFASQTTVPDSEGAITMQHTKGGMDYHIGSGIPEMLAGNIERCLADAFDSIGVAADWKDLFWAVHPGGRRILDLIEEALGLDNGAMASRQVLREFGNMSGTTVIFVLNELRRRFKANGAEGADWGALMAFGPGVTIETMLLRVAAGLKGN
modifications: (1)..(402) ProtKB - A0A0D9WZ61
B3: AFU07710.1: Type-III PKS enzyme from Paphiopedilum × areeanum (protein)
chain: MPGLENRKKVEVPKRAKDLATIMAIGRANPPNAVEQSTFPDFYFRVTNNEHLVGLMKKFQCICEKTVIRRRHFVWDEEILNANPCLRTHMEPSFNVRQKIAVAEIPKMGAEAASRAIKEWGQPKSRITYLIFYTMSGMDLPVTDYKLTRILNLNLNVYQVMLYQWDCIAGGTILCWAKCSAESQKGTRVLVVSSETTTVLVRAPSEDYHDDLVTQDLFGDGASALIVGADPDEEAKERPIFTIVSTSQVVLPDSDGVIGGHLSEGGLMATLHRDVALIISKNVSKCLEEAFVTLGISDWNSIFWAPHPCRRAILDQVEERVGLKPEKLWASRHVLAEFGNMTSVCVHFVLDEIHNRSTQGKTTTGEGFDWGVLFGFGPGLIVETVILRSVPLN
modifications: Paphiopedilum x areeanum; (1)..(393) AFU07710.1
B4: CAA10514.1: Type-III PKS enzyme from Bromheadia finlaysoniana (protein, listed as Bromheadia finlaysoniana)
chain: MASQVSPPSINMAPKADGFASILAIGRANPKNFIEQSTFPDFFFRVTNTEHMVDLKKKFQRICDKTSIRKRHFIWNEELLTANPSLCTFMGNSLNLRHEVAVREIPKLGAEAATKAIQEWGQPKSFITHLVFCTTSGMDLPGADYQLTQILGLNLDIERVMLHQQGCFLGGTTLRLAKYLAESRKGARVLVVCAETTTEFFRAPSEEHQEDLVTQSLFGDGASALIVGADPHEGARERASFILVSSSQVLLANSAHAITGHVSEGGIKATLHRDVPQIISNNLGKCLEEAFTPLGISDWNSIFWVLHPGGRAILDQVEEKMGLEPEKLLISRHVLLEYGNMSSVCVHFALDEMRKRSSNEGKATTGEGLEWGVLFGFGPGLTIETVVLRSVSIS
modifications: (1)..(394) CAA10514.1
B5: AAZ32093.1: Type-III PKS enzyme from Oncidium Gower Ramsey (protein)
chain: MPSLESIKNAPKTDGFASILAIGSANPENIIEQSTYPDFFFHLTNSEHLVDLKNKFQRICDKTAIRKRHFAWNEELLTANPCLRTFMDNSLNVRQEFVIREIPKLGAQAATKAIQEWGQSKSRITHLIFSTTSGMDLPGADYQLTQILGLNPNIERVMLYHQGCFAGGTTLRLTKSLAESRKGARVLVVCAETTSALTFRAPSEEHQDDLVVQALFGDGASALIVGADPDEAADERASFIIVSTSQVLLSDSAGAIGGHLSEGGLIVTLHRDVPQIVSKNVGNCLKEAFTPLGISDWNSIFWVPHPGGPAILDQIEERVGLNPEKLIISRHMLAEYGNMLGVSVHFALDEMRKRSAKEGKATTGEGLDWGVLLGIGPGITVETVVLHSVRI
modifications: Oncidium hybrid cultivar; (1)..(391) AAZ32093.1
notes: Type-III PKS enzyme from Oncidium Gower Ramsey
B6: AFU07709.1: Type-III PKS enzyme from Paphiopedilum armeniacum (protein, listed as Paphiopedilum armeniacum)
chain: MPGLENRKKVEAPKREEGLATIMAIGRANPPNAMEQSTFPDFYFRVTNSEHMVGLKKKFQRICEKTAIRRRHFVWNEEILNANPCMCTHMEPSLNVGQKIVVAEIPKLGAEAASRAIEVWGQPKSRITHLIFCTTSSMDLLGADYKITRILGLNLNVQRGMLYQQGCFAGGTVLRLAKCFTESQKGTRVLVVCSENAIILVRASSEDYQDDLVTQALFADGASALIVGEDPDEEAKERPIFTIISTTHVILPDSDGAIGGHLGEGGLMATLQRDVPFIISKNVNTCLEESFAPLVISDWNSVFWAPHSGGRAILDQVEERAGLKPEKLWASRHVLAKYGNMSSVCVHFVLDEIRKRSTKEGKTTTGEGFDWGVLFGFGLGLTVETVILRSVPLN
modifications: (1)..(394) AFU07709.1
B7: PKU71375.1: Type-III PKS enzyme from Dendrobium catenatum (protein, listed as Dendrobium catenatum)
chain: MAQRADGSASILAIGKATPENFLEQSTYPDYFFRVTNSQHLIDLKKKFQRICDKTSIRKRHFILNEELITKNPCLSKFMENSINTRLEIYAKEIQKLAVEAATKAIQEWGQPKSCITHLIFSTLSDPGLPCGDYHLLQTLGLSPNIERVVILQHGCFAGGTMLRLAKCLAESHKGARVLVVSAETTTMLFRGPSEEHQEDLITQALFADGASALIVGVNPNETIGERASFVITSASQVILPNSSHAITGHLSEGGIKATIHKDVPNLLSNNIGKILEEAFTPLGISNWNSIFWVVHPGGRAILDQLEERVGLKPEKLMISRHVLAEYGNLMGVCVHFVLDEMRKRSIDEGNTTTGEGLEWGVLLGFGLGVTIETIVLQSVSL
modifications: (1)..(382) PKU71375.1

In the first assay the test system is E. coli derivative strain which overexpressed an acyl-CoA synthetase (fadD) gene and expressed an olivetolic acid cyclase (OAC) from Cannabis sativa. Put plainly: OL, OLA and PDAL production in E. coli from plasmid-expressed Type-III PKS genes. The assay is classed as cell-based. Particulars: OL + OLA + PDAL; gene on plasmid. The procedure: To test olivetolic acid production in E. coli, strains comprising a putative OLS gene and an OAC gene from C. sativa were inoculated in multi-well plates containing LB supplemented with 1% glucose and appropriate concentrations of antibiotics. After 6 hours of cultivation at 32° C., the cells were transferred with a 10% inoculum to a P-limited seed medium (see Table 2) and cultivated for ˜18 hours at 32° ° C. to reach an OD of 2.0-4.0. The cultures were transferred with a 20% inoculum in a P-minimal medium (see Table 3) supplemented with 2% glucose and appropriate concentrations of antibiotics. After 3 hours of cultivation at 32° C., the culture was spiked with 4 mM hexanoic acid (˜OD 1.5-2.0). The resulting cultures were then harvested at either 3 hours or 21 hours post hexanoic acid spike; a final OD was taken. 300 μL of butyl acetate containing 500 mg/L undecanoic acid was added to each multi-well plate. The plates were then vortexed for 30 minutes at 1500 rpm and centrifuged for 10 minutes at 4500 rpm. 50 μL of organic layer was transferred to a 96-well plate and derivatized with 50 μL of N,O-Bis(trimethylsilyl)trifluoroacetamide (BSTFA). The plate was then incubated at room temperature for 2 hours to allow for complete derivatization. The samples were then run on GC-FID for analytical quantification of olivetolic acid (OLA), olivetol (OL), PDAL, and hexanoic acid.
Olivetol, PDAL, OLA, HTAL, CBGA and combinations thereof were analyzed by LCMS or LCMS/MS methods using C18 reversed phase chromatography coupled to either EXACTIVE™ (ThermoFisher) or QTRAP® 4500 (Sciex) mass spectrometers.
For reversed phase LCMS, compounds were identified by their LC retention times and MRM transitions specific to the compounds. LCMS/MS analysis was conducted on a Shimadzu UHPLC system coupled with AB Sciex QTRAP 4500 mass spectrometer. Agilent Eclipse XDB C18 column (4.6×3.0 mm, 1.8 μm) was used with a 1-min gradient elution at 1 mL/min using water containing 0.1% ammonia acetate as mobile phase A and 90% methanol containing 0.1% ammonia acetate as mobile phase B. The LC column temperature was maintained at 45° C. Negative ionization mode was used for all the analytes.
The genes for 20 Type-III PKS enzymes were codon optimized for E. coli and cloned under control of a constitutive promoter into an expression vector (p15a replicon, carbenicillin resistance marker). The 20 plasmids were transformed into an E. coli derivative strain which overexpressed an acyl-CoA synthetase (fadD) gene and expressed an olivetolic acid cyclase (OAC) from Cannabis sativa.
The in vivo assay procedure and analytical methods were performed as described above.
As for B1, the Total is 37 µM.

As for B2, the Total was 34 µM.

As for B3, the Total stood at 0 µM.

For B4, the Total was 61 µM.

With B5, the Total was 16 µM.

As to B6, the Total was 0 µM.

In the case of B7, the Total was 0 µM.

Still in this assay, the particulars now being: gene on plasmid, constitutive promoter; culture spiked with 4 mM hexanoic acid.
Regarding B1, the OL amounted to 27 µM, the OLA was 10 µM and the PDAL was determined as 0 µM.

For B2, the OL was 34 µM, the OLA was 0 µM and the PDAL is 0 µM.

In the case of B3, the OL turned out to be 0 µM, the OLA worked out at 0 µM and the PDAL was found to be 0 µM.

Turning to B4, the OL was determined as 0 µM, the OLA stood at 0 µM and the PDAL turned out to be 61 µM.

As for B5, the OL was determined as 16 µM, the OLA is 0 µM and the PDAL is 0 µM.

Turning to B6, the OL is 0 µM, the OLA came out at 0 µM and the PDAL is 0 µM.

In the case of B7, the OL turned out to be 0 µM, the OLA turned out to be 0 µM and the PDAL turned out to be 0 µM.
